One molecule from US20190381183A1 (TEXAS A AND M UNIVERSITY SYSTEM, published 2019) can be followed below.

The target of assay [1] is T1, recombinant human HER2 (extracellular domain)-Fc fusion protein (human, UniProt P04626 23-652).
T1 construct: extracellular domain; Bought reagent; also called HER2-ECD-Fc; HER-extracellular domain (ECD)-Fc fusion; not shown: immunoglobulin Fc fragment of the bought fusion protein
Kind of assay: SPR, antibody injected over immobilized HER2-ECD-Fc, apparent equilibrium dissociation constant, pH 5.8. Background: Surface plasmon resonance follows binding to a sensor surface in real time, without labels.

The target in assay [2] is T1, recombinant human HER2 (extracellular …). Kind of assay: SPR, antibody injected over immobilized HER2-ECD-Fc, apparent equilibrium dissociation constant, pH 7.4.
The target is the same in assay [3]. Kind of assay: SPR, antibody injected over immobilized HER2-ECD-Fc, apparent equilibrium dissociation constant, pH 7.0.
Assay [4] shares this target. Kind of assay: SPR (BIAcore T200), antibody injected over immobilized HER2-ECD-Fc, pH 5.8, apparent KD (FIG. 4B); pH 5.8.
For assay [5] the target is unchanged. The assay is described as follows: SPR, antibody injected over immobilized HER2-ECD-Fc, apparent equilibrium dissociation constant, pH 6.5.

B1: YS mutant of pertuzumab (Tyr55 to histidine in the light chain variable domain and Ser103 to histidine in the heavy chain variable domain) (antibody, human IgG1, V domains shown)
VH: QVQLQESGGGLVQPGGSLRLSCAASGFTFTDYTMDWVRQAPGKGLEWVADVNPNSGGSIYNQRFKGRFTLSVDRSKNTLYLQMNSLRAEDTAVYYCARNLGPHFYFDYWGQGTLVTVSS
VL: DIELTQSPSSLSASVGDRVTITCKASQDVSIGVAWYQQKPGKAPKLLIYSASYRHTGVPSRFSGSGSGTDFTLTISSLQPEDFATYYCQQYYIYPYTFGQGTKLEIKR
notes: Tested without conjugated drug in the SPR assay; also called YS variant of pertuzumab
Consider B1, for which the Kd in assay [1] is 1630 nM; in assay [2] it was 6.3 nM; in assay [3] it was 22.1 nM; in assay [4], more than 1500 nM; in assay [5], 67.9 nM.
